± gives the uncertainty stated by the source.
experiment: amyloid nucleation score (Sup35N fusion, yeast selection) (log enrichment); library NNK1; higher = more nucleation; inactive = no reads after selection
How it was run: (§1)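 The nucleation score, computed with DiMSum, is the log enrichment of output over input reads, centred on the mode score of non-aggregating sequences. Sequences with under 100 input reads were dropped. Reads were generated by Illumina sequencing of plasmid inserts from psi-negative yeast with Sup35N fused to peptides of 20 random codons, induced with 100 μM copper sulfate for 24 hours and grown 7 days at 30°C on medium lacking adenine and uracil.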

Row | Substance | amyloid nucleation score
1 | ENRFARCYRVV | 2.1 ± 0.1
2 | PIYGFLWELRR | 0.486 ± 0.51
3 | KWVKEALIA | -0.463 ± 0.73
4 | MRYIKSVVSSVCSYNLPLRA | 0.525 ± 0.44
5 | YFCILGSNDSNRIGWPRRST | 0.101 ± 0.42
6 | LLRVAFLKRYFSTIFCVLLR | -0.716 ± 0.53
7 | NNSLKCCLFLMSNLKSSRVN | 6.08 ± 0.066
8 | HGHENVDWQKITDIGGRENC | -0.715 ± 1.9
9 | HVNSRRVLSHFVFDCARIGT | 0.592 ± 0.69
10 | YMGLYWLDRRMICMQLLWTL | 2.37 ± 0.4
11 | YLVPELYEMSNS | 1.38 ± 0.79
12 | LLLSILRWDEDMMLNFW | 1.21 ± 0.43
13 | SYLGCVHWSRRTDLVTFFDF | 0.495 ± 0.27
14 | AAMCLLIWRACRISVDMHMC | -0.205 ± 0.27
15 | FDFCVEIWLRVFLNMWGRLR | 0.689 ± 0.33
16 | MNPTFILRTGSRGGDYWS | 0.206 ± 0.52
17 | CPPSYLMT | -0.464 ± 0.45
18 | LWVFS | 0.762 ± 0.7
19 | CDRLIKVSYRFIGAADRRWM | 1.35 ± 0.76
20 | QRMFFYNIIVWNVN | 2.79 ± 0.14
21 | NRRDDNQCVSWIGVKAKVLS | 0.564 ± 0.43

Row | Substance | amyloid nucleation score
22 | FGMLIAVRSR | 0.315 ± 0.29
23 | ISGIECQYTNGRRWGPPS | -0.323 ± 0.81
24 | LYHRGVFELCS | 0.596 ± 0.34
25 | VDVRNWCIWDWKGLSAGVGG | -0.643 ± 0.41
26 | AKSELHYSRFYFTLGVMKSL | -0.138 ± 0.48
27 | FRWTLTSLRSVNDFSG | 0.948 ± 0.65
28 | LVMMTDIANWRLPCYFSNLW | 0.201 ± 0.54
29 | VVHRALLYGNGIVN | 1.4 ± 0.7
30 | RQVPGIKCKSFTLYFADITL | 3.85 ± 0.1
31 | PCTFWAEVRINRWSYYARQR | -0.856 ± 2.4
32 | RESDFYTLDLRQVMISAEPL | 0.158 ± 0.36
33 | RLTCFRGLGNIYIELINMVN | -0.376 ± 0.23
34 | GTTVPGFCITKSVKTMGRNQ | 0.643 ± 0.39
35 | DSSRSVFLWTGG | -0.994 ± 1.9
36 | SRPNDMFTALVYTCYLPNK | -0.539 ± 0.6
37 | NRFYYKARCRQVGHCT | 0.743 ± 0.46
38 | IQSLVFRGKRVTHTKQSLTL | 0.262 ± 0.36
39 | HRCPLTGFSSL | 0.022 ± 0.45
40 | EVRSQSNEYHLRNWCVYK | 1.31 ± 0.23
41 | FRCLRTRSCLQWAQGLGAEA | 0.596 ± 0.47
42 | RHLMLVKYVFGSRELGL | 0.169 ± 0.25

experiment: amyloid nucleation score (Sup35N fusion, yeast selection) (log enrichment); library NNK2; higher = more nucleation; inactive = no reads after selection
How it was run: as §1

Row | Substance | amyloid nucleation score
43 | NVFSS | -0.42 ± 0.35
44 | DCSYYPSGIFMGLMFNLIAM | 3.23 ± 0.064
45 | GNNNMRPIALCTLSMGGRTF | -0.575 ± 0.49
46 | NVVSLIIQRKLRPAPVGSFR | 0.218 ± 1.1
47 | CSRRYSLRL | -0.319 ± 0.54
48 | TTVSYISERFTYLGSL | 3.84 ± 0.12
49 | PLGPNSTYFVWASSWAFYRP | -1.65 ± 0.78
50 | TYSLKFGSVVGRNYNLGY | 2.08 ± 0.1
51 | GWQWRWLHYRSVRINEEMVS | 0.342 ± 0.34
52 | LGYDDGYVAGRGKADMFSLD | inactive
53 | AYMSYRAGMDRLQCDVS | -0.947 ± 1.1
54 | ATGSYSMITLDIFQSNCSDA | 3.51 ± 0.053
55 | NCCEMNVLYLSIRLLFHVTA | 1.58 ± 0.097
56 | LRLVYISTMIQMPFGRRVF | 3.73 ± 0.04
57 | WTGSFRMSRQHMWNSTSFQM | -0.215 ± 0.5
58 | SNYDGPGSYIYEKYCSSEEG | -0.703 ± 1
59 | NILVLLVTGVTLGR | 4.11 ± 0.059
60 | MACTFHVLTMGRFWSAWHRM | 0.598 ± 0.29
61 | LKFRRYVCKVLWEAYG | 0.153 ± 0.43
62 | LMHFSFSVAGRAGNELLFIG | 2.46 ± 0.22

Row | Substance | amyloid nucleation score
63 | MTLVRFSRIGALKLCLQKES | -0.337 ± 0.39
64 | WNKLSLA | 0.443 ± 0.49
65 | WTNVYAIVFR | 4.65 ± 0.044
66 | LFFTKGKLFNEAI | inactive
67 | FAKFQGSKISPVSHTSLLST | inactive
68 | TVFSIMLLSRM | -0.002 ± 1
69 | AASRWTWC | 1.5 ± 0.16
70 | IASTVDFKSLIISGDPSRQF | -0.235 ± 0.46
71 | KALQNSDGVGTRNLQTRHGY | 1.75 ± 0.29
72 | VAMSCGRSYLKCLMACGLHM | -0.053 ± 1
73 | AVLLPNWSAYSGKNTSYVPV | 2.13 ± 0.1
74 | EWLAVYVYLHQDGLNNFRS | -0.784 ± 0.4
75 | HMLAPCFNM | -1.58 ± 0.78
76 | YNWVNTPGHVNL | -1.4 ± 0.62
77 | MVGVVWSMTRFCGQHHTILG | 0.531 ± 0.81
78 | MPWFIQMVHLCWFPEGRTRF | 4.85 ± 0.071
79 | YRCSDLYK | 2.47 ± 0.29
80 | WSCQESIVRSRDDYSRFRCG | 3.42 ± 0.13
81 | FVFHWLFVSSRACILHPVVW | 0.604 ± 0.3
82 | IWQNVDCCPSWRLCVANHFM | 6.778 ± 0.054

experiment: amyloid nucleation score (Sup35N fusion, yeast selection) (log enrichment); library NNK3; higher = more nucleation; inactive = no reads after selection
How it was run: as §1

Row | Substance | amyloid nucleation score
83 | NVFSS | inactive

Reference: the supplement of paper PMC12042874
